According to patent US7384761 (RIGEL PHARMACEUTICALS, dated 2008):
Each block holds one binder with its values, some of them ahead of it.

What was measured:
Rad9 = biological target: T1, Rad9
T1 chain: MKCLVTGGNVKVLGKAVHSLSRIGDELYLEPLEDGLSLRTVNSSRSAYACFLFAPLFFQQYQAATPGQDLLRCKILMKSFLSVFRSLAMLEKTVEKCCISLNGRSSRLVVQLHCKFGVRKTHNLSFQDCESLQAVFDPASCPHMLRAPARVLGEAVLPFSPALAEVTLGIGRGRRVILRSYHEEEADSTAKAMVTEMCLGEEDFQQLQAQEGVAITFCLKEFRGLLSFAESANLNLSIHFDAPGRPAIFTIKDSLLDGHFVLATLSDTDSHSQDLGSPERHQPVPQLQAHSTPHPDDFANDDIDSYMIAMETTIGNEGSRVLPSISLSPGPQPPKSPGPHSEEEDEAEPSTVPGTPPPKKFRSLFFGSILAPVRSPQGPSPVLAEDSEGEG

[1] = biological target: T2, protein phosphatase 5 (PP5) (Homo sapiens (Human), UniProt P53041 1-499, limits assumed); test: coimmunoprecipitation, gel
T2 construct: Wildtype PP5; also called protein phosphatase type 5; cell cycle protein
T2 sequence: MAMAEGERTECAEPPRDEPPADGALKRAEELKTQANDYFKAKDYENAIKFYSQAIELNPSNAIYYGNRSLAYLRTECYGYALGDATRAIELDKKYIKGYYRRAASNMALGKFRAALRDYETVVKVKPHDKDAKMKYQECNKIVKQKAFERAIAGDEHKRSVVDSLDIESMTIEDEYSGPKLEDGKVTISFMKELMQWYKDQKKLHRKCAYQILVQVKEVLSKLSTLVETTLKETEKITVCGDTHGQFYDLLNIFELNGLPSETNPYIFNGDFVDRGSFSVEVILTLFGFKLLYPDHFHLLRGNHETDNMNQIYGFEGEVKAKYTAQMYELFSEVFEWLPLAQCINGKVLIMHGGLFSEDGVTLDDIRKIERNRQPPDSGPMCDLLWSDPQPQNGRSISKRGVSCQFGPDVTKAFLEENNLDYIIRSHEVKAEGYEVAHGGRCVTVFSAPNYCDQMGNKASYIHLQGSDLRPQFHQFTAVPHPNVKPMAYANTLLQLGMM

B1: protein phosphatase 5 (PP5) (protein)
chain: T2 sequence
dephosphorylation of Rad9 (Rad9): cotransfection of PP5 with Rad9 in HeLa cells leads to dephosphorylation of Rad9 which is dependent on phophatase activity of PP5 | dephosphorylation of Rad9 in vitro (Rad9): PP5 dephosphorylates Rad9 directly in vitro

binding result [1]: binds
B2: Rad9 (other)
chain: T1 chain
notes: also called human Rad9
